# Results published in paper PMC7094256 (Febs Letters, 2005).
# B1: GST-tagged human heterogeneous nuclear ribonucleoprotein A1 (natural protein)
# chain: MSKSESPKEPEQLRKLFIGGLSFETTDESLRSHFEQWGTLTDCVVMRDPNTKRSRGFGFVTYATVEEVDAAMNARPHKVDGRVVEPKRAVSREDSQRPGAHLTVKKIFVGGIKEDTEEHHLRDYFEQYGKIEVIEIMTDRGSGKKRGFAFVTFDDHDSVDKIVIQKYHTVNGHNCEVRKALSKQEMASASSSQRGRSGSGNFGGGRGGGFGGNDNFGRGGNFSGRGGFGGSRGGGGYGGSGDGYNGFGNDGSNFGGGGSYNDFGNYNNQSSNFGPMKGGNFGGRSSGPYGGGGQYFAKPRNQGGYGGSSSSSSYGSGRRF
# Columns and labels:
# [1] = target: His-tagged nucleocapsid protein of SARS coronavirus (SARS coronavirus, UniProt P59595 1-422); assay: SPR
# Chain of His-tagged nucleocapsid protein of SARS coronavirus (P59595 whole entry): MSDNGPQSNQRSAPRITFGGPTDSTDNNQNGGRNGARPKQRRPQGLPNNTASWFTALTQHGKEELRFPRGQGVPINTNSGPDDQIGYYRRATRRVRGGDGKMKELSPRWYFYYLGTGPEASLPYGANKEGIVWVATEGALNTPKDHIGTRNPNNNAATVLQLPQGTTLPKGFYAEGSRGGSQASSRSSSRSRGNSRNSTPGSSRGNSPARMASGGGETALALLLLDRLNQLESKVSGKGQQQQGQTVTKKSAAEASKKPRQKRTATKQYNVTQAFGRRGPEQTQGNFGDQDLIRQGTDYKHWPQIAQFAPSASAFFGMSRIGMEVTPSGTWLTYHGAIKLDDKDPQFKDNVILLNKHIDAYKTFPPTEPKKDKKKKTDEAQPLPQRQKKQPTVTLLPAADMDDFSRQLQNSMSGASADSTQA
# [2] = target: B1; assay: SPR
Binder,Kd [1] [µM],koff [1] [s⁻¹],kon [1] [M⁻¹ s⁻¹],Kd [2] [µM]
B1,0.35 ± 0.02,0.00206,5830,
ASSRSSSRSRGNSRN [synthesized peptide ASSRSSSRSRGNSRN (aa 183–197 of SARS_N)],,,,148 ± 12
